Where “and” joins values, the source holds several entries; their conditions need not be identical. Equal entries are not always repeated.
What was measured:
Settings in all cases: both partners purified
[1] = molecular target: T1, typhoid toxin (A2B5 holotoxin: CdtB, PltA and a PltB homopentamer), biotinylated (Salmonella enterica serovar Typhi; …, UniProt Q8Z6A7;Q8Z6A4;Q8Z6A3); assay: ELISA; […] (30 min, 37°C) […]
T1 construct: also called TyT; biotinylated typhoid toxin; not shown: His6, C-terminal, kept; copies: 1 + 1 + 5

[2] = molecular target: T2, typhoid toxin (A2B5 holotoxin: CdtB, PltA and a PltB homopentamer), biotinylated (Salmonella enterica serovar Typhi; …, UniProt Q8Z6A7;Q8Z6A4;Q8Z6A3); assay: BLI; Octet Red96e; […] (2 µg/mL) […]; association 5 min, dissociation 30 min; 25°C; 1:1 model; […]
T2 construct: also called TyT; biotinylated typhoid toxin; not shown: His6, C-terminal, kept; copies: 1 + 1 + 5

[3] = molecular target: T1, typhoid toxin (A2B5 holotoxin: CdtB, …); assay: as above; remark: listed apart in the source
[4] = molecular target: T3, PltB homopentamer, biotinylated (Salmonella enterica serovar Typhi; …, UniProt Q8Z6A3, biotinylated with EZ-link NHS-Biotin (sites not given)); assay: ELISA; […] (30 min, 37°C) […]
T3 construct: also called PltB5; pentameric PltB subunits

B1: T4F3 (VHH)
VHH: QLQLVETGGGLVQPGGSLTLSCAASGFTLNYWHMGWYRQAPGKQRELVATISGHGITNYADSVKGRFTISRDDAKNSVYLQMNSLKPEDTAVYYCNFISRTNDWGQGTQVTVSS
notes: also called anti-CdtB VHH T4F3; source: E. coli Rosetta-gami 2(DE3)pLacI, pET32b+, purified (Ni-NTA)
B1: binds [1].

B2: T4E8 (VHH)
VHH: QLQLVESGGGLVQAGGSLRLSCAASGMSFSTYTMGWYRQAPGKRRGLVATISSGGSTNYADSVKGRFTISRDNAKDTVYLQMNSLKPEDTAEYYCNVKGDYQTPNMGYWGQGTRVTVSS
notes: also called anti-CdtB VHH T4E8; source: E. coli Rosetta-gami 2(DE3)pLacI, pET32b+, purified (Ni-NTA)
For B2, the Kd [2] was 2.03 nM and 4.44 nM and the kon [2] was 53300 M⁻¹ s⁻¹ and 73600 M⁻¹ s⁻¹.

B3: T4B5 (VHH)
VHH: QLQLAESGGGLVQPGGSLRLSCAASGSIFSINVMGWYRQVPGKQREWVASITRGGGTLYADSVKGRFTISRDSAKNTVYLQMNSLKPEDTAVYYCNADLMEDSDSDYHEYWGQGTQVTVSS
notes: also called anti-CdtB VHH T4B5; source: E. coli Rosetta-gami 2(DE3)pLacI, pET32b+, purified (Ni-NTA)
B3: binds [1].

B4: T4C4 (VHH)
VHH: QVQLAESGGGLVQPGGSLRLSCAASGSIFSINVMGWYRQAPGKQRESVAVITRGGGTMYADSVKGRATISRDSAKNTVYLQMNSLKPEDTAVYYCNADLMQAVDSEYEDYWGQGTQVTVSS
notes: also called anti-CdtB VHH T4C4; source: E. coli Rosetta-gami 2(DE3)pLacI, pET32b+, purified (Ni-NTA)
In the case of B4, the Kd [3] is reported as 0.284 nM and 0.11 nM, the koff [3] is reported as 0.000264 s⁻¹ and 0.00026 s⁻¹ and the kon [3] is reported as 929000 M⁻¹ s⁻¹ and 2.36e+06 M⁻¹ s⁻¹.

B5: T4C12 (VHH)
VHH: QVQLAESGGGLVQPGGSLRLSCAASGSIFSINVMGWYRQAPGKQREFVAVITRGGSTDYADSVKGRFTISRDNAKNTVYLQMNSLKPEDTAVYYCNADLMQTSASEYEDCWGQGTQVTVSS
notes: also called anti-CdtB VHH T4C12; source: E. coli Rosetta-gami 2(DE3)pLacI, pET32b+, purified (Ni-NTA)
In the case of B5, the Kd [3] is reported as 2.84 nM and 1.55 nM and the koff [3] is reported as 0.00121 s⁻¹ and 0.00243 s⁻¹.

B6: T4C11 (VHH)
VHH: QLQLVETGGGLVQPGGSLRLSCAASGSIFSINIMGWYRQAPGKQRESVAVITRGGGTMYADSVKGRFTISRDSAKNTVYLQMNSLKPEDTAVYYCNADLMQAVDSEYEDYWGQGTQVTVSS
notes: also called anti-CdtB VHH T4C11; source: E. coli Rosetta-gami 2(DE3)pLacI, pET32b+, purified (Ni-NTA)
B6: binds [1].

B7: T2G9 (VHH)
VHH: QVQLVETGGGSVQAGGSLRLSCAASGFTFDDYAIGWFRQAPGKEREMILCINSRGGSTSYYADSVKGRFTVSVNSAKNTAYLQMNSLKPEDTAVYYCAADVTPPHSCNALDAWGQGTLVTVSS
notes: also called anti-PltB VHH T2G9; source: E. coli Rosetta-gami 2(DE3)pLacI, pET32b+, purified (Ni-NTA)
With B7 the binding result [4] was “binds” and the kon [2] was 155000 M⁻¹ s⁻¹ and 139000 M⁻¹ s⁻¹ and 105000 M⁻¹ s⁻¹.

B8: T2E7 (VHH)
VHH: QLQLVESGGGLVQPGGSLRLSCAASGFTLDYYAIGWFRQAPGKERERVSCISGRDGGTYYADSVKGRFAISRDNAQNTVYLQMSRLKPEDTAAYYCAADYADNYCTGSFPPDYWGQGTQVTVSS
notes: also called anti-PltB VHH T2E7; source: E. coli Rosetta-gami 2(DE3)pLacI, pET32b+, purified (Ni-NTA)
In the case of B8, the binding result [4] is reported as “binds”, the Kd [2] is reported as 0.629 nM and 0.618 nM and 0.911 nM and the koff [2] is reported as 0.000278 s⁻¹ and 0.000313 s⁻¹ and 0.000369 s⁻¹. The kon [2] was 443000 M⁻¹ s⁻¹ and 507000 M⁻¹ s⁻¹ and 405000 M⁻¹ s⁻¹.

B9: T4E5 (VHH)
VHH: QLQLVETGGGLVQPGGSLKLSCVASGSIFSINVMGWFRQASGKQREVVAQITRGGGTIYADSVKGRFTISRDDAKNSVYLQMNSLNPEDTAVYLCNADLMQGIDSEYEDYWGQGTQVTVSS
notes: also called anti-CdtB VHH T4E5; source: E. coli Rosetta-gami 2(DE3)pLacI, pET32b+, purified (Ni-NTA)
For B9, the kon [3] was 424000 M⁻¹ s⁻¹ and 382000 M⁻¹ s⁻¹ and 306000 M⁻¹ s⁻¹.
